The values that follow come from publication PMC4626678 (2015).

The target in experiment [1] is T1, trypsin (Bos taurus, UniProt P00760).
T1 chain: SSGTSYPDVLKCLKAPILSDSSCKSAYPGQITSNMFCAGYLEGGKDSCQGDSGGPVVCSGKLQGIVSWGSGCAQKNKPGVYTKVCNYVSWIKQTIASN
In words: enzyme inhibition (Dixon, BAPNA).

The target in the next experiment is alpha-chymotrypsin (Bos taurus, UniProt P00766). As to the kind of experiment: SPR. Background: In SPR one partner is held on a chip, and binding of the other changes the refractive index at the surface.
Experiment [2] concerns the target T1, trypsin. In words: SPR.

B1: HCRG2 (protein)
chain: RGICLEPKVVGPCKARIRRFYYDSETGKCTPFIYGGCGGNGNNFETLHACRGICRA
The term Ki denotes a dissociation constant, usually derived from enzyme kinetics or from competition with a known ligand. As usually defined, the Kd is the free concentration of one partner at which half of the binding sites on the other are occupied at equilibrium, for simple one-to-one binding. Low readings indicate a tighter complex, high ones a looser complex. With B1, the Ki in the experiment with trypsin [1] is 50 nM. The Kd in the experiment with alpha-chymotrypsin came to 1.6 nM; with trypsin [2] it was 0.68 nM.

B2: HCRG1 (protein)
chain: RGICSEPKVVGPCKAGLRRFYYDSETGECKPFIYGGCKGNKNNFETLHACRGICRA
As to B2, in the experiment with trypsin [1], the affinity corresponds to a Ki of 28 nM. The Kd with alpha-chymotrypsin was determined as 1.8 nM; in the experiment with trypsin [2], 0.22 nM.
